Data taken from patent US20250026813A1 (published 2025).

How the values were obtained:
[1] = molecular target: SARS-CoV-2 spike protein bearing furin mutation and truncation in retention sequence, presented in t (SARS-CoV-2, UniProt P0DTC2 14-1273); assay: cell-based or functional assay
[2] = molecular target: T1, S1 subunit of the SARS-CoV-2 spike protein (Sino Biological 40591-V08H), His tag (SARS-CoV-2, UniProt P0DTC2 16-685)
T1 construct: domain: S1 subunit

[3] = molecular target: full-length stabilised spike trimer protein of SARS-CoV-2 virus (in-house, soluble ECD with trimeris (SARS-CoV-2, UniProt P0DTC2 14-1208; P10104 458-484)

Row | Binder | PV neutralisation IC50 [1] [nM] | PV neutralization % (Ab 1 ug/mL) [1] [%] | HTRF deltaF [2] [deltaF] | HTRF deltaF [3] [deltaF]
1 | YANG-2305 (antibody, V domains shown) VH: QVQLVESGGGVVQPGRSLRLSCAASGFTFSSYGMHWVRQAPGKGLEWVAIIWYDGSKKYYADSVKGRFTISRDNSKNTLNLQMNSLRAEDTAVYYCAREEDIVASGGLYYNFNGMDVWGQGTTVTVSS VL: not shown | 0.57 | 64.4 | – | –
2 | IMPI-024 (antibody, V domains shown) VH: EVQLVQSGAEVKKPGESLKISCKGSGYSFTSYWIGWVRQMPGKGLEWMGIIYPGDSDTRYSPSFQGQVTISADKSISTAYLQWSSLKASDTAMYYCVRSYNWNYFDYWGQGTLVTVSS VL: AIQLTQSPSSLSASVGDRVTITCRASQGISSGLAWYQQKAGKAPKLLIYDVSSLESGVPSRFSGSGSGTDFTLTISSLQPEDFATYYCQQFLSYPWTFGQGTKVEIK | – | – | 799 | 1460
3 | IMPI-029 (antibody, V domains shown) VH: EVQLVESGGGLIQPGGSLRLSCAASGVTVSSNYMNWVRQAPGKGLEWVSVIYSGGSTYYADSVKGRFTISRDNSKNTLFLQMNSLRAEDSAVYYCARDLGPYGVDVWGQGTTVTVSS VL: DIQLTQSPSFLSASVGDRVTITCWASQGISSYLAWYQQKPGKAPKLLIYAASTLQSGVPSRFSGSGSGTEFTLTISSLQPEDFATYYCQELNSYPLTFGQGTRLEIK | – | – | 3050 | 1700
4 | IMPI-021 (antibody, V domains shown) VH: EVQLVESGGGLIQPGGSLRLSCAASGVTVSSNYMSWVRQAPGKGLEWVSVIYSGGSTFYADSVKGRFTISRDNSKNTLYLQMNSLRAEDTAVYYCARDLSYYGMDVWGQGTTVTVSS VL: DIQLTQSPSFLSASVGDRVTITCWASQGISSYLAWYQQKPGKAPKLLIYAASTLQSGVPSKFSGSGSGTEFTLTISSLQPEDFATYYCQQLNSYPCSFGQGTKLEIK | – | – | 1280 | 962
5 | IMPI-005 (antibody, V domains shown) VH: EVQLVESGGGLIQPGGSLRLSCAASGFTVSSNYMNWVRQAPGKGLEWVSVIYSGGSTYYADSVKGRFTISRDNSKNTLFLQMNSLRAEDSAVYYCARDLGPYGVDVWGQGTTVTVSS VL: DIQLTQSPSFLSASVGDRVTITCWASQGISSYLAWYQQKPGKAPKLLIYAASTLQSGVPSRFSGSGSGTEFTLTISSLQPEDFATYYCQELNSYPLTFGQGTRLEIK | – | – | 1510 | 1360
6 | YANG-2303 (antibody, V domains shown) VH: QVQLVQSGAEVKKPGASVRVSCKVSGYTLPELAIHWVRQAPGKGLEWMGGFDPEDGETIYAQKFQGRVIMTEDTSTDTAYMDLSSLRSEDTAVYYCVKTWAAPGYNYGLDTWGQGTTVTVSS VL: EIVLTQSPGILSLSPGESATLSCRASQSIASNYLAWFQQKPGQAPRLLIYGASSRAAGFPDRFSGSGSGTDFTLTIKRLEPEDSAVYYCQHYGSSPCSFGQGTNLEIK | 0.48 | 58.6 | – | –
7 | YANG-2304 (antibody, V domains shown) VH: QVQLVQSGTEVKKPGASVKVSCKVSGYTLPELAIHWVRQAPGKGLEWMGTFDPEDGETICAQKFQGRVTMTEDTSTDTAYMDLSSLRSEDTAVYYCATTSIIAARWWFDPWGQGTLVTVSS VL: QSALTQPPSASGSPGQSVTISCTGTSSDVGGYDYVSWYQQHPGKAPKLMIYEVSKRPSGVPDRFSGSKSGNTASLTVSGLQAEDEADYYCSSFAGSNNVVFGGGAKLTVL | 0.74 | 52.8 | – | –
8 | YANG-2306 (antibody, V domains shown) VH: QVQLVQSGAEVKKPGASVKVSCKVSGYTLPEISIHWVRQAPGKGLEWMGGFDPEDGETIYAQKFQGRVIMTEDTSTDTAYMDLSSLRSEDTAVYFCAAAPAIASASTFWLDPWGQGTLVTVST VL: QSALTQPPSASGSPGQSVTISCTGTSSDVGGYNYVSWYQQHPGKAPKLMIYEVTKRPSGVPDRFSGSKSDNTASLTVSGLQAEDEADYYCSSYAGSNNLVFGGGTKLTVL | 0.43 | 60.4 | – | –
